Laboratory results reported in IntAct's records for PubMed 21115843.

Target: notc1_mouse Notch1 (UniProt Q01705)

Substance: Presenilin-1 (Homo sapiens) (from UniProt P49768) D385A
- effect of a mutation on the interaction: disrupting interaction
